Source: patent US7943358B2, “Polymerase enhancing factor (PEF) extracts, PEF protein complexes, isolated PEF protein, and methods for purifying and identifying” (Agilent Technologies, Inc., priority 1997, dated 2011)

Assays:
Assay type in all cases: biochemical
[1] = molecular target: T1, cloned Pfu DNA polymerase (Pyrococcus furiosus, UniProt P61875); assay: 6.2 kb primer-template PCR enhancing assay; details: protein concentrations comparable to or greater than gel-purified PEFs
T1 sequence (P61875 1-775): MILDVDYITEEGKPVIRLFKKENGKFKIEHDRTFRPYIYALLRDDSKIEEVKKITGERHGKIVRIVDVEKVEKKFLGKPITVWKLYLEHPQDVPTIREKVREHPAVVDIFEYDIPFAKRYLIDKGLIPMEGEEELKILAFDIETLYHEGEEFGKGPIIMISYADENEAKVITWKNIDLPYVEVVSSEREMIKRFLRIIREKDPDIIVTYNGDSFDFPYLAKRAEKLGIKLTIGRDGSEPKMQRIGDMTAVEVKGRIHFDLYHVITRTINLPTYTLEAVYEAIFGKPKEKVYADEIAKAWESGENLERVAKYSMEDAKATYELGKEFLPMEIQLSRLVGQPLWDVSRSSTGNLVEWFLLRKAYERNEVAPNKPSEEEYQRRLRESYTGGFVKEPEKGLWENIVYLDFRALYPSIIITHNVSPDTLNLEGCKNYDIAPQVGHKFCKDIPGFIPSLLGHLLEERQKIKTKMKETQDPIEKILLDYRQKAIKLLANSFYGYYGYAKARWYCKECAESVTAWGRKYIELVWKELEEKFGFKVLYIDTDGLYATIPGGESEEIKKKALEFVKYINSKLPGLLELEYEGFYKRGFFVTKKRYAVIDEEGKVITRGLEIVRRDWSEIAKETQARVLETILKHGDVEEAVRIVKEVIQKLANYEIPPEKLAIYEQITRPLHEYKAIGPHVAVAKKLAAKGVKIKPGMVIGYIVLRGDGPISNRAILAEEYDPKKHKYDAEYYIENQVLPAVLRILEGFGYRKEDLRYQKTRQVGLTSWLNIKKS
Protocol: One embodiment of an assay used to screen for PEFs, in this case from Pyrococcus furiosus, involved amplifying a 6.2 kb target from transgenic mouse DNA (6.2 kb primer-template assay). A master PCR cocktail was prepared consisting of: 200 μM each dNTP, 2 μg/ml primer F432-21 (5′-CTA-TTG-AGT-ACG-AAC-GCC-ATC) (SEQ ID NO.: 62), 2 μg/ml primer R6656-20 (GTC-ACG-CTT-GCT-CCA-CTC-CG) (SEQ ID NO: 63), 2.5 μg/ml λAA742 DNA (transgenic mouse DNA having 40 copies of a lambda phage DNA shuttle vector), 1× cloned Pfu DNA polymerase PCR buffer (10 mM KCl, 10 mM (NH4)2SO4, 20 mM Tris-HCl (pH 8.8), 2 mM MgSO4, 0.1% (v/v) Triton X-100, and 100 μg/ml BSA), and 25 U/ml cloned Pfu DNA polymerase. Samples were diluted in 1× cloned Pfu DNA polymerase PCR buffer, and 1 μl of each diluted sample was added to 24 μl of the PCR cocktail. PCR amplifications were conducted on the RoboCycler 96 Temperature Cycler (Stratagene), using the following conditions: 96° C. for 45 s (1 cycle)/96° C. for 45 s; 60° C. for 45 s; 72° C. for 14 min. (35 cycles)/72° C. for 10 min. (1 cycle). PCR products (10 μl/lane) are run out on 1% agarose gels and PCR product bands visualized by ethidium bromide staining. […] When PCR enhancement is due to the presence of PEFs, rather than contaminating endogenous DNA polymerase activity, amplifications performed in the absence of […] yield no PCR product. Moreover, PCR amplifications performed in the absence of exogenous DNA template should yield no PCR product when the PEF sample lacks contaminating target DNA.

[2] = PCR cycling of dCTP in the presence of PEF or Pfu DNA polymerase, HPLC; details: 10 mM dCTP, 1.25 U Pfu/μl
[3] = tested on: gapped-duplex calf thymus DNA; assay: DNA polymerase activity, gapped-duplex calf thymus DNA assay; details: 30 minutes at 72° C.
Protocol: Initially and as a control to confirm the activity of the DNA polymerase used, gapped-duplex calf thymus DNA (Pharmacia) assays were performed. The polymerase cocktail contained 50 mM Tris-HCl, pH 8.0, 5 mM MgCl2, 1 mM DTT, 50 μg/m BSA, 4% glycerol, 200 μM each dNTP, [^3H]TTP (0.5 mCi·μmole final concentration), and 250 μg/ml of activated calf thymus DNA (Pharmacia). Samples containing Pfu DNA polymerase or P. furiosus PEF were serially diluted in Pfu DNA polymerase storage buffer (50 mM Tris-HCl, pH 8.2, 0.1% NP-40, 0.1% Tween-20, 0.1 mM EDTA, 1 mM DTT, 50% glycerol) and then 1 μl of each dilution was added to 10 μl aliquots of polymerase cocktail. Polymerization reactions were conducted in triplicate for 30 minutes at 72° C. The extension reactions were quenched on ice, and then 5 μl aliquots were spotted immediately onto DE81 filters (Whatman). Unincorporated [^3H]TTP was removed by 6 washes with 2×SCC (0.3M NaCl, 30 mM sodium citrate, pH 7.0), followed by one wash with 100% ethanol. Incorporated radioactivity was measured by scintillation counting. The assay was calibrated by counting a known amount of [^3H]TTP on DE-81 filters, omitting the wash steps. One unit of polymerase activity is defined as the amount of enzyme which catalyzes the incorporation of 10 nmoles of total dNTP into polymeric form (binds to DE-81 paper) in 30 minutes at 72° C. […]

B1: Pfu DNA polymerase: DNA polymerase of Pyrococcus furiosus (protein, UniProt P61875 1-775, looked up)
DNA polymerase: T1 sequence (P61875 1-775)
With B1 the “PCR enhancing activity (in words)” value [1] was “lacks PCR enhancing activity”, the “change in dCDP, dCMP or dUTP produced when dCTP cycled with Pfu DNA polymerase” value [2] was “no difference” and the “specific activity (DNA polymerase)” value [3] was 2-4×10^4 u/mg.
